Consider 1 substance from PMC11162425.

For this test, the target named is Lcl C-terminal domain (Lcl-CTD, residues 252 to 401) (Legionella pneumophila strain 130b). Description: SEC-MALS.

Turning to “Lcl C-terminal domain (Lcl-CTD, residues 252 to 401) (domain or fragment)”, the stoichiometry N is 3.
